# Laboratory results as given in paper PMC5767323, “Differential NtcA Responsiveness to 2-Oxoglutarate Underlies the Diversity of C/N Balance Regulation in Prochlorococcus” (Frontiers in Microbiology, 2018).
# T1: NtcA SS120 (Prochlorococcus sp. SS120) (UniProt Q7VDU1)
# T1 sequence: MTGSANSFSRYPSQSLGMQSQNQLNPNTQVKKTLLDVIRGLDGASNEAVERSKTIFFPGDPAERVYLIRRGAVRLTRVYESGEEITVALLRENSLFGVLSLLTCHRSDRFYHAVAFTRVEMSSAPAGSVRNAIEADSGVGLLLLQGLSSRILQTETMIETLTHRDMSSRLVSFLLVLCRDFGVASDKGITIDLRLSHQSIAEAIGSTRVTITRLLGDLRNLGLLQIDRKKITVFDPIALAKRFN
# T2: NtcA (Prochlorococcus marinus, UniProt Q7VDU1)
# T2 construct: recombinant His6-tagged NtcA (pET-15b)
# T2 sequence (Q7VDU1 1-244): T1 sequence
# T3: NtcA (Prochlorococcus marinus, UniProt Q7TUG3)
# T3 construct: recombinant His6-tagged NtcA (pET-15b)
# T3 sequence (Q7TUG3 1-244): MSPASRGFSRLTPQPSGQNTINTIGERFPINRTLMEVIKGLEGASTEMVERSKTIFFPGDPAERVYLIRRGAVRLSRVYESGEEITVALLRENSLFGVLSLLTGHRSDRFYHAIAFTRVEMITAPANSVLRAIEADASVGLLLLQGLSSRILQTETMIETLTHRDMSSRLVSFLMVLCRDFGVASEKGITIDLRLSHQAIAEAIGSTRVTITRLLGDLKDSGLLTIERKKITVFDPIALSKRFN
# T4: NtcA (Prochlorococcus marinus, UniProt Q7TUN1)
# T4 construct: recombinant His6-tagged NtcA (pET-15b)
# T4 sequence (Q7TUN1 1-222): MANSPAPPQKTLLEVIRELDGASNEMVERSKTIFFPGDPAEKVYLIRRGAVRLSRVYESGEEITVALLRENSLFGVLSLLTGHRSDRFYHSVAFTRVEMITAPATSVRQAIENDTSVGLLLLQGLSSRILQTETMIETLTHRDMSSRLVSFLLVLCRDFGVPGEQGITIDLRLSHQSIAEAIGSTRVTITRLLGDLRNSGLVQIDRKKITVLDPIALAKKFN
# T5: NtcA MED4 (Prochlorococcus sp. MED4, UniProt Q7TUG3 1-244)
# T5 sequence: T3 sequence (Q7TUG3 1-244)
# T6: NtcA MIT9313 (Prochlorococcus sp. MIT9313, UniProt Q7TUN1 1-222)
# T6 sequence: T4 sequence (Q7TUN1 1-222)
# T7: NtcA SS120 (Prochlorococcus sp. SS120, UniProt Q7VDU1 1-244)
# T7 sequence: T1 sequence
# B1: DNA6, glnA promoter MED4 mutated (dsDNA)
# DNA 1: AAAAACTAACCTTTGACTGATAAT
# DNA 2: ATTATCAGTCAAAGGTTAGTTTTT
# B2: DNA1, glnA promoter MIT9313 wt (dsDNA)
# DNA 1: TAGAAGGTACCTGTTGCTACAAAAAG
# DNA 2: CTTTTTGTAGCAACAGGTACCTTCTA
# B3: DNA3, glnA promoter SS120 wt (dsDNA)
# DNA 1: CCAATAGTCACAAAAAGTACTTATTG
# DNA 2: CAATAAGTACTTTTTGTGACTATTGG
# B4: DNA5, glnA promoter MED4 wt (dsDNA)
# DNA 1: AAAAAGTTACCTTTGATACATAAT
# DNA 2: ATTATGTATCAAAGGTAACTTTTT
# Assays:
# [1] = biological target: T1, NtcA SS120 (Prochlorococcus sp. SS120); assay: ITC; settings: ITC: 50 mM Hepes, 350 mM NaCl, pH 7.5, 25 C, 0-10 mM 2OG, SPR: Biacore X, CM5 with neutravidin, buffer not given, EMSA: as Napolitano et al. 2012, 1 uM …
# NtcA [2] = biological target: T2, NtcA; assay: ITC of NtcA-dsDNA at varied 2OG, ternary equilibrium fit; supported by SPR and EMSA; type: binding
# NtcA [3] = biological target: T3, NtcA; assay: ITC of NtcA-dsDNA at varied 2OG, ternary equilibrium fit; type: binding
# NtcA [4] = biological target: T4, NtcA; assay: ITC of NtcA-dsDNA at varied 2OG, ternary equilibrium fit; supported by SPR and EMSA; type: binding
# NtcA MED4 [5] = biological target: T5, NtcA MED4; assay: ITC; independent of 2OG; ITC: 50 mM Hepes, 350 mM NaCl, pH 7.5, 25 C, 0-10 mM 2OG; SPR: Biacore X, CM5 with neutravidin, 25 C, buffer not given; EMSA: as Napolitano et al. 2012, 1 uM NtcA; settings: protein: recombinant; tags: His6 (pET-15b); chain copies: 2; blunt
# NtcA MIT9313 = biological target: T6, NtcA MIT9313; assay: ITC; saturating 2OG (Kd,eff = Kd/alpha, extrapolated from fit); ITC: 50 mM Hepes, 350 mM NaCl, pH 7.5, 25 C, 0-10 mM 2OG; SPR: Biacore X, CM5 with neutravidin, 25 C, buffer not given; EMSA: as Napolitano et al. 2012, 1 uM NtcA; settings: protein: recombinant; tags: His6 (pET-15b); chain copies: 2; blunt
# NtcA SS120 = biological target: T7, NtcA SS120; assay: as above; settings: protein: recombinant; tags: His6 (pET-15b); chain copies: 2; blunt
# NtcA MED4 [6] = biological target: T5, NtcA MED4; assay: as above; settings: protein: recombinant; tags: His6 (pET-15b); chain copies: 2; blunt
molecule,measurement,setting,value
"CCAATAAGCCCCACACGGCATTATTG (double strand) [DNA4, glnA promoter SS120 mutated]",Kd,[1],10 µM
"O=C(O)CCC(=O)C(=O)O [2OG, 2-oxoglutarate]",Kd,NtcA [2],42000 ± 3000 µM
same,Kd,NtcA [3],36000 ± 3000 µM
same,Kd,NtcA [4],19000 ± 2000 µM
B1,Kd,NtcA MED4 [5],9.5 ± 0.9 µM
B2,Kd,NtcA MIT9313,0.06 ± 0.01 µM
B3,Kd,NtcA SS120,0.8 ± 0.2 µM
B4,Kd,NtcA MED4 [6],0.5 ± 0.1 µM
